Results published in publication PMC3439879.
Like-named read-outs stand apart in the source and are kept apart here.

Tests used:
[1] = biological target: Hfq (HfqEc) (Escherichia coli) (UniProt P0A6X3); experiment: EMSA
[2] = system: HfqCp (Clostridium perfringens); experiment: EMSA; conditions: 50 mM Tris-HCl pH 7.5, 100 mM KCl, 10 mM MgCl2, room temperature; […]
[3] = biological target: Hfq (HfqEc) (Escherichia coli) (UniProt P0A6X3); experiment: SHAPE footprinting

Sequence of Hfq (HfqEc) (Escherichia coli) (P0A6X3 whole entry): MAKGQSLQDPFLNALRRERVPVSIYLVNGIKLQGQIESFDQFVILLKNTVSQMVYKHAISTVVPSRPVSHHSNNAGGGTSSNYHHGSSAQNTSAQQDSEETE

Row | Substance | Kd [1] [nM] | also measured
1 | GGUUCUGGCCGGCUAACCCGGUCACAUGGGAUGAGGAGAUAACAUAAUCUCCCUCCCACAAGCAGUAACUAUAAAAAUAACCCCACUCUCUACAAGGCUCGGGGCGCCCGAAAAAACGGGCAUACAGGUUGACCGACAACGAUAUAAAUCGGAAUCAAAAACUAUGUGUGGAAUUGUUGGCGCGAAUAUUAAGCUUGCUCGG [glmS mRNA -161 to +21] | 30 | –
2 | GlmZ | – | Kd ([1]; 50 mM Tris-HCl pH 7.5, 100 mM KCl, 10 mM MgCl2, room temperature, […]): 4.5 nM; Kd [2]: 12 nM
3 | glmS mRNA -161 to +21 | 30 | –
4 | GGCCUUCGGGCCAAUUCUGGCCGGCUAACCCGGUCACAUGGGAUGAGGAGAUAACAUAAUCUCCCUCCCACAAGCAGUAACUAUAAAAAUAACCCCACUCUCUACAAGGCUCGGGGCGCCCGAAAAAACGGGCAUACAGGUUGACCGACAACGAUAUAAAUCGGAAUCAAAAACUAUGUGUGGAAUUGUUGGCGCGUCGAUCCGGUUCGCCGGAUCCAAAUCGGGCUUCGGUCCGGUUCAAUAUUGGAUCCGCUCGG [glmS mRNA SHAPE construct] | – | binding [3]: binds
5 | GlmY | 4.3 | –
